These results are taken from the DeepSol protein solubility set.

This data set can be described thus: soluble on expression in E. coli; label from the status in PepcDB or PDB records.
“MEEEILSFVSIQSHVSSAGEKPIHVLDENPKFSRLHPSPSNIDSGEDSTSINKSNMESYGFSPVKIIEALIRETTAQGNVNMQRKSLFFPTQISDLFPAILNSKRKTG”: the “soluble on expression in E. coli” value is “soluble”. Next, “MEEHLSVMYERLRQELPKLFLQSHDYSLYSLDVEFINEILNIRTKGRTWYILSLTLCRFLAWNYFAHLRLEVLQLTRHPENWTLQARWRLVGLPVHLLFLRFYKRDKDEHYRTYDAYSTFYLNSSGLICRHRLDKLMPSHSPPTPVKKLLVGALVALGLSEPEPDLNLCSKP”: “not soluble”; “MEEKKDFYDTDELRDFMALVEKTNDIKKIALFRILAFTGIRKGELLALEWKDYRKSTLDINKAISHSPVGYEILPPKANSNRLLSLDEKTCKILDELHQTYPESTRIFESENGGMLSPSKPRKWLLEITKEKEIEPIRIHAFRHTHASLLFESGMSLKQVQYRLGHADLKTTMNIYTHITKLEHHHHHH”: “soluble”. Turning to “MEEKLLVNLKENSYNIFIKKNILKNIGEEIKKIYFGNKIFIVTDENIAKLYLDKVKNNLSESGFEIKSLILKSGEETKSFNTLPKIYDSLLDFKLTRKDLIITLGGGVIGDLGGFAAATFLRGISFIQIPTSLLAQVDSSVGGKVGVDLERGKNLVGSFYQPKAVFIDPNVLLSLPEKFYRDGMAEVIKYGCIKDKTFFNKLLSLKNREEVMQHIEYIIHKCCFIKKTVVEADEKDFGDRMLLNFGHTLGHAIEKYYNFTGYTHGEAVAIGMYKITLESEKIGITKKGTSELIKSILMNYNLPYEIELRDNKSIVDAISLDKKNLGDTLKIILLKDIGESIIYNTTSKFFQEVR”, the “soluble on expression in E. coli” value was “not soluble”. As for “MEETVDQAANSRTISLPISRVRLIMKSSPDVSCINQDALFLTTKATELFVQHLALSSYENGPSKDTNTLSYSDLADTVEETETFQFLTDILPKKILARDYLKTLEEMEKEDDNM”, the “soluble on expression in E. coli” value is on record as “not soluble”. For “MEEVGGNGGPARIAECGKIGSGTINSNVVPSVNLPSPSVKPSVTPSVKKPPHVIRSDYSKPREKPAKVAKKPTVKNDKKPKPVAIVAPTGIIKTFKTTPNPNRNL”, the “soluble on expression in E. coli” value was “soluble”. As to “MEFEFIRNTLMGEYYVKCSMGHEIVGRWLQEEIGKDPTMIAQVEALIDKAFSLPSQEHTLTGTEISLMIQGDEVLVQENALSHDYDVEMESEFDFYDAESTASCGIEDFVALIEQWKDFLNI”, the “soluble on expression in E. coli” value was “not soluble”. Next, “MEFLLLDDRENLKLAIIRKLEQQYSFSERKDRLCKQLAISPYLLERNITEINADLQRFGLINEMEISEKNNEILLSQSLRISSSIIEEYYLKDSLEFNLLKTIFFHQFTSIKKYGEKHGMSRTVVYKIVDHIRKELGQYGIKLSKNLQLSGNEMAIRQYFTMLYYRIYKDSEELYNQTDLRAVNQLLAQLKGSYENITNFHLFKHYVLVALERTQRKANYFLSQEENPFAFDEESSIYQEIQSWINEVMKATHAEKNAEIQGIIGNLSVYQSELISEHLLSSHNEAITATKTLFFSYMPFTISDEEFYQEIVPIIYQHRFITPFIDITLRIMDLEFFQERYPIVFNSCRQFLFALDCSAFEFSKLSLFFDLLLVLSRLYDQRNEKSTINLYVNFTQGEKYTQFIKEQIKIFESFSIHFHSAIRPDTDLVVSDYLPKTLFSVKCLIWLAPPRASDWQNFGNEIVRINKELQQTKQRKSE”: “not soluble”; “MEFRQLRSFVEVVRQGSFTQAAQVRHASQSTISKQVAQLEQSLGVQVLERNGPHVRLTDAGAVVFRRAEEMLRLRRDLLSELDDLSQLNRGELRLGLPLLGADALFAQRFAEYRRRYPNIAVHLVEGGSKTMEQAVLAGELELAGSLTPADDGFDYQPFCNEPLDVLLPAGHPKAAAASVALGELADSPFLLYQQSFTLNDRLLRACLEAGFSPREGGRSGQADFLGALVAANQGVVLLPRVIAREIERPGVVRVLLREPDLRWDIAFIWRRGGYLSRAAQAWLELLREQPLEESPA”: “not soluble”. Take “MEFYSQSRFSNWVNKIAETELDEDNPETFAVFDQMLEDVIIACLSIIRAVKEREIRKADAVKEVEKILGLIPNHDFGDELKNELFQFTLESIKAVLLSFRLYFEGKISKKSFEALLKDALKKEQSGDYEGSLNAVAQMGAKVIKGEQLPELDIPEDSAVISWIDGIDAISSVLELSKIDAPTE”: the “soluble on expression in E. coli” value was “not soluble”. Under “MEGAVIKVIGLGGAGNNAVNRMIEAGLSGVEFIAANTDAQVLAKSLADHRIQLGEKLTRGLGAGANPEIGEKAALEAEDLIAEALEGADLVFITAGMGGGTGTGSAPVVADIAKRLGALTVAVVTRPFSFEGPKRMRAAEEGIKKLKERVDAMVVVQNDRLLSAVDKKMTLKDAFLIADRVLYHGVKGITDVINLPGLINVDFADVKALLEGAGQVLMGIGAGRGENRVEEAAKSAIHSPLLERSIEGAKRLLLNVVGSEELSLMEAAEVVERIREATGHEDVDILYGVTYDERAQDELRVILIAAGFAESTVVPRPARPVDFPTGHVDLTNYDIPAFIRYGDGDYPPRRGN” stands “soluble”. Under “MEGLQRSTISFRRQGSSGIVFDDRLIAELNKSGNNEQKDESQRDEQPKPMSESSEQVKPIDEKDKLRPIKTGGGAPGGIERSRSNGGGAQRHHRTTGRVSPAVDPPSPRISSCGCCSAFGKNPPGKKVNPRKRPPKRRSR” stands “not soluble”. Next, “MEGQTHDAQNNVPEHDNPLMNVKNPSSNLFSKKDAQCLSVLCNGKWLQIVRSSPKVSCEASTCPSHILTKVGENYVAESEKMHKKVISFSSKTFSQGTLQFTMRANGTPHFVFKLENQKDVYVASLSSNVQDQNSYMIHLQRGESSASSSHLVGRINVSTLFSEKVLEREFVLFSSNGENLKIPRTRKNRGLSKKVVHAVKNERRTARLSRTSFIPDLGSWDEQFQAQNYDCLLKNKLPTNLETLAVVVKQETIEDEIGGWGLKFLKRSPMFQRSNDASETETSTSSISMNVVIPSGIHGGPEDGPSSLIERWKSQGNCDCGGWDLCCSLTLLKGQPRKDQYFELFIEVKLSFISSNTSIL”: “not soluble”; “MEGVQEVEIDAPLSGWHPAEGEDASFSQSINYPASSVNMADDQNISAQIRGKIKNYAAAGKVQQGRLVVNGASMPQRIESDGSFARPYIFTEGSNSVQVISPDGQSRQKMQFYSTPGTGTIRARLRLVLSWDTDNTDLDLHVVTPDGEHAWYGNTVLKNSGALDMDVTTGYGPEIFAMPAPIHGRYQVYINYYGGRSETELTTAQLTLITDEGSVNEKQETFIVPMRNAGELTLVKSFDWLEHHHHHH”: “not soluble”; “MEIDEGKYECEACGYIYEPEKGDKFAGIPPGTPFVDLSDSFMCPACRSPKNQFKSIKKVIAGFAENQKYG”: “soluble”. Consider “MEIGVVGKPNVGKSTFFSAATLVDVEIANYPFTTIEANVGVTYAITDHPCKELGCSPNPQNYEYRNGLALIPVKMVDVAGLVPGAHEGRGLGNKFLDDLRMASALIHVVDATGKTDPEGQPTDYHDPVEDIEFLEREIDYWIYGILSKGWDKFAKRIKLQKIKLESAIAEHLSGIGVNENDVWEAMHKLNLPEDPTKWSQDDLLAFASEIRRVNKPMVIAANKADAASDEQIKRLVREEEKRGYIVIPTSAAAELTLRKAAKAGFIEYIPGASEFKVLRDMSEKQKRALMVIKEKVLDRFGSTGVQEVINRVVFDLLKLIPVYPVHDENKLTDQFGNVLPHVFLMKKGSTPRDLAFKVHTDLGKGFLYAINARTKRRVGEDYELQFNDIVKIVSVTR”, for which the “soluble on expression in E. coli” value is on record as “soluble”. For “MEILYIKGDATAPIGSGVKVITHICNDIGGWGKGFVLALSKKWKMPEEAYRQWYKSQEEFTLGAVQFVNVENKLYVANMIGQHGIYKDSKGLPPIRYDAVRQCLKEVALFTIAHKASVHMPRIGCGLAGGKWELMEQIIKEELITKEIAVTVYDLMAGDPLEHHHHHH”, the “soluble on expression in E. coli” value is “soluble”. For “MEKIWLDSYEKGVSAEIDITQYNSVSDVFRQSVEKFADQPAFQNMGKTLTYAETGKLATDFASYLQNVLKLPRGERVAIMLPNVLQYPVALFGILQAGLVAVNTNPLYTPRELEHQLKDSGATAIIVLENFANTLELVLPRTQIKHVIVASVGEMFGLLKGSLINFVIRKIKKMVPEYRIRETVSFQTALKEGAKHVFQPVALNREDTALLQYTGGTTGVAKGAVLSHGNICANMLQAKEWIKNQLREGKETVIAALPLYHIFALTVNLMIFANAGSKIILITNPRDMKGFIGELKKQRVNVFIGVNTLFNAMVNRPDFAEVDFSELRLTLGGGMATQKAVAEKWKKITGTPIVEAYGLTEASPGVCCNPLNIESYSGSIGLPVSSTEVELRDANGKEVPVGQPGELWVKGPQVMQGYWNRPEETAKAIDARGFLETGDIAVMDEKGWLKLVDRKKDLVVVSGFNVYPNEIEEVIAHHGKVMEVACIGVPDEKTGEALKVFVVKKDPSLTKEELIAFCRTELTAYKVPKNIEFRDELPKSNVGKILRRELRQSTGK”, the “soluble on expression in E. coli” value is “not soluble”. As for “MEKLIILGAQWGDEGKGKIVDLLSEHFDITVRYQGGSNAGHTVVVNSQKFILHLLPTGILHEHVKGVIAQGMVVDLEVLHKEVKNLEEKGIYVKERLFISDRAHLVMPYHKLLDSLFEKKKGIGTTLRGIGPAYMFKYGRKGIRISDLKDEKRFYTLLEDNLDFVKNICEKVFCEKFDLDINQIYEEQLRYFEEFKENVVDLLRFFNTQKGSVLFEGAQGTLLDVDMGTYPYVTSSNASALGLSNGTGMPPKYFSDAFFLGVAKAYTTRVGEGPFPTELKGEEGEKLRELGGEYGSTTGRPRRCGWLDLVALKYAVQVNGLDGFVITKLDVLDTFDEVKVCVAYELDGEVIDYFPASYSELIRVKPVYKTLKGWKKSTKGAKDVSELPKEALDYVKFIEEYTGVPVVMLSTGPKRDEYIWLKEILRTRSGYS”, the “soluble on expression in E. coli” value is “soluble”.

As for “MEKPTRLALLKEIAEFLNEETEIYSMMQGALRLLINGSDFSTGWIFYIDEEGHHDLVSSVDLPEALSKNHCYYLTNGSCWCVQAYQNHKLTKASNIINCSRINLANHAYDKETNHITHHATVPLQSGSERFGLLNVASPNKEHYSEEDLELLESVAFQIGSAIKRIQLTNKEKENAKINERNRLARDLHDSVNQMLFSLKLTAHAAKGITTDEQAQRAFKTIEETSQNAVNEMRALIWQLKPVGLEQGLIHALHYYSKMLGLDLKVTINGLIDLSNDIEENVYRIIQEAMNNVIKHAKTNKVYLDLSQNVDYLEVDIRDNGQGFDTQSINTFLFNGLKNIKQRTQYLNGKVTIESKINQGTRIYIKIPLKLKEHPYA”, the “soluble on expression in E. coli” value is on record as “not soluble”.

For “MEKPVMCKIIDVLDESPTVKTFLLDKEFDFKPGQFAMVWIPEIDEKPFGFSSKNSISIAKVGRFTEKIHSLKKGDLLGIRGPYGNNFEYMGSKILAVAGGIGSAPIISAVEKFSKMDVEVTSIIGGRTKDELLFLDRFEKCGRTFACTDDCSYGFGGFTTEKMLELLSKEKFDMIISCGPEIMMKKVVEIAEKHAIPIQVSLERYMKCGIGICGHCAVDDEGLCICKDGPVFWNDKLKFVSEFGKYKRDASGAIL”, the “soluble on expression in E. coli” value was “not soluble”.
